Changes are numbered by the printed parent chain.
B1: CMQ332 (bispecific antibody, human IgG1, kappa, lambda, L234A L235A)
heavy 1: EVQLLESGGGLVQPGGSLRLSCAASGFTFSINAMTWVRQAPGKGLEWVSTISGSGFSTYYADSLKGRFTISRDNSKNTLYLQMNSLRAEDTAVYYCAKEVYGDYWGQGTLVTVSSASTKGPSVFPLAPSSKSTSGGTAALGCLVKDYFPEPVTVSWNSGALTSGVHTFPAVLQSSGLYSLSSVVTVPSSSLGTQTYICNVNHKPSNTKVDKRVEPKSCDKTHTCPPCPAPEAAGGPSVFLFPPKPKDTLMISRTPEVTCVVVDVSHEDPEVKFNWYVDGVEVHNAKTKPREEQYNSTYRVVSVLTVLHQDWLNGKEYKCKVSNKALAAPIEKTISKAKGQPREPQVCTLPPSREEMTKNQVSLSCAVKGFYPSDIAVEWESNGQPENNYKTTPPVLDSDGSFFLVSKLTVDKSRWQQGNVFSCSVMHEALHNHYTQKSLSLSPGK
light 1: not shown
heavy 2: not shown
light 2: DIQMTQSPSSVSASVGDRVTITCRASQGISSWLAWYQHKPGKAPKLLIYVASSLQSGVPSRFSGSGSGTDFTLTISSLQPEDFATYYCQQANSAPLTFGGGTKVEIKRTVAAPSVFIFPPSDEQLKSGTASVVCLLNNFYPREAKVQWKVDNALQSGNSQESVTEQDSKDSTYSLSSTLTLSKADYEKHKVYACEVTHQGLSSPVTKSFNRGEC
B2: OUQ507 (bispecific antibody, human IgG1, kappa, lambda, L234A L235A)
heavy 1: B1 heavy 1
light 1: not shown
heavy 2: not shown
light 2: B1 light 2
B3: DHJ369 (bispecific antibody, human IgG1, kappa, lambda, L234A L235A)
heavy 1: B1 heavy 1
light 1: not shown
heavy 2: not shown
light 2: B1 light 2 with A94F
B4: ZBA121 (bispecific antibody, human IgG1, kappa, lambda, L234A L235A)
heavy 1: B1 heavy 1
light 1: not shown
heavy 2: not shown
light 2: B1 light 2 with A94F
B5: IFM656 (bispecific antibody, human IgG1, kappa, lambda, L234A L235A)
heavy 1: B1 heavy 1
light 1: not shown
heavy 2: not shown
light 2: B1 light 2 with M4L, N92S, A94F
B6: JKJ112 (bispecific antibody, human IgG1, kappa, lambda, L234A L235A)
heavy 1: B1 heavy 1
light 1: not shown
heavy 2: not shown
light 2: B1 light 2 with A94F
B7: JAK529 (bispecific antibody, human IgG1, kappa, lambda, L234A L235A)
heavy 1: B1 heavy 1
light 1: not shown
heavy 2: not shown
light 2: B1 light 2
B8: EXX354 (bispecific antibody, human IgG1, kappa, lambda, L234A L235A)
heavy 1: B1 heavy 1
light 1: not shown
heavy 2: not shown
light 2: B1 light 2
B9: SUR250 (bispecific antibody, human IgG1, kappa, lambda, L234A L235A)
heavy 1: B1 heavy 1
light 1: not shown
heavy 2: not shown
light 2: B1 light 2 with M4L, N92S, A94F
B10: PAP722 (bispecific antibody, human IgG1, kappa, lambda, L234A L235A)
heavy 1: B1 heavy 1
light 1: not shown
heavy 2: QVQLQESGPGLVKPSETLSLTCTVSGGSISSDYWGWIRQPPGKGLEWIGYISSRGSTNYNPSLKRRVTISVDTSRNQFSLKLSSVTAADTAVYYCARSAGVADFDFWGQGTLVTVSSASTKGPSVFPLAPSSKSTSGGTAALGCLVKDYFPEPVTVSWNSGALTSGVHTFPAVLQSSGLYSLSSVVTVPSSSLGTQTYICNVNHKPSNTKVDKRVEPKSCDKTHTCPPCPAPEAAGGPSVFLFPPKPKDTLMISRTPEVTCVVVDVSHEDPEVKFNWYVDGVEVHNAKTKPREEQYNSTYRVVSVLTVLHQDWLNGKEYKCKVSNKALAAPIEKTISKAKGQPREPQVYTLPPCREEMTKNQVSLWCLVKGFYPSDIAVEWESNGQPENNYKTTPPVLDSDGSFFLYSKLTVDKSRWQQGNVFSCSVMHEALHNHYTQKSLSLSPGK
light 2: not shown
B11: GMH764 (bispecific antibody, human IgG1, kappa, lambda, L234A L235A)
heavy 1: B1 heavy 1
light 1: not shown
heavy 2: B10 heavy 2 with S53Y, R65S, A102T, F106W
light 2: not shown
B12: EDV817 (bispecific antibody, human IgG1, kappa, lambda, L234A L235A)
heavy 1: B1 heavy 1
light 1: not shown
heavy 2: B10 heavy 2 with S53Y, R65S, A102T, F106A
light 2: not shown
B13: CDP278 (bispecific antibody, human IgG1, kappa, lambda, L234A L235A)
heavy 1: B1 heavy 1
light 1: not shown
heavy 2: B10 heavy 2 with Y33F, A102T
light 2: not shown
B14: BBU753 (bispecific antibody, human IgG1, kappa, lambda, L234A L235A)
heavy 1: B1 heavy 1
light 1: not shown
heavy 2: B10 heavy 2 with Y33F
light 2: not shown
B15: ECW089 (bispecific antibody, human IgG1, kappa, lambda, L234A L235A)
heavy 1: B1 heavy 1
light 1: not shown
heavy 2: B10 heavy 2 with S53Y, R65S, A102T, F106A
light 2: not shown
B16: EJD551 (bispecific antibody, human IgG1, kappa, lambda, L234A L235A)
heavy 1: B1 heavy 1
light: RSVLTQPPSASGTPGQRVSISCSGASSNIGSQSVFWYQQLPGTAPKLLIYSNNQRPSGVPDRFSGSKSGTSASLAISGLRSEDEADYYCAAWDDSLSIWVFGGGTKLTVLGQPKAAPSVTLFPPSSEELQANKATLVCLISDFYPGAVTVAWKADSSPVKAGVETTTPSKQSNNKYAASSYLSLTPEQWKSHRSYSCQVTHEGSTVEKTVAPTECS
heavy 2: B10 heavy 2 with S53Y, R65S, A102T, F106W
chain: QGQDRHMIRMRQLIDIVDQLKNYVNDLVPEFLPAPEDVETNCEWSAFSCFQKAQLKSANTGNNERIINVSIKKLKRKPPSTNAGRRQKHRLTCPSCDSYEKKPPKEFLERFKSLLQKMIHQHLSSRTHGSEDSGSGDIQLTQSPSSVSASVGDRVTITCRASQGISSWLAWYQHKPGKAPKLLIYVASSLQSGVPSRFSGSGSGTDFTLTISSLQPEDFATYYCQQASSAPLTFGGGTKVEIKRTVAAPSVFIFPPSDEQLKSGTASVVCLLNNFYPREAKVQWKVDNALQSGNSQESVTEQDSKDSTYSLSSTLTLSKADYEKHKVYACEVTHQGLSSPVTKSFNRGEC
B17: ETR048 (bispecific antibody, human IgG1, kappa, lambda, L234A L235A)
heavy 1: B1 heavy 1
light 1: not shown
heavy 2: B10 heavy 2 with S53Y, R65S, A102T, F106W
light 2: not shown
B18: CDP451 (bispecific antibody, human IgG1, kappa, lambda, L234A L235A)
heavy 1: B1 heavy 1
light 1: not shown
heavy 2: B10 heavy 2 with Y33F, A102T
light 2: not shown
B19: GSV075 (bispecific antibody, human IgG1, kappa, lambda, L234A L235A)
heavy 1: B1 heavy 1
light 1: not shown
heavy 2: B10 heavy 2 with S53Y, R65S, A102T, F106W
light 2: not shown
B20: YCV364 (bispecific antibody, human IgG1, kappa, lambda, L234A L235A)
heavy 1: B1 heavy 1
light 1: not shown
heavy 2: B10 heavy 2 with Y33F
light 2: not shown
B21: UNY098 (bispecific antibody, human IgG1, kappa, lambda, L234A L235A)
heavy 1: B1 heavy 1
light 1: not shown
heavy 2: B10 heavy 2 with S53Y, R65S, A102T, F106A
light 2: not shown
B22: ULS916 (bispecific antibody, human IgG1, kappa, lambda, L234A L235A)
heavy 1: B1 heavy 1
light 1: not shown
heavy 2: B10 heavy 2 with S53Y, R65S, A102T, F106A
light 2: not shown
B23: VYL308 (bispecific antibody, human IgG1, kappa, lambda, L234A L235A)
heavy 1: B1 heavy 1
light 1: not shown
heavy 2: B10 heavy 2 with S53Y, R65S, A102T, F106A
light 2: not shown
B24: VCG677 (bispecific antibody, human IgG1, kappa, lambda, L234A L235A)
heavy 1: B1 heavy 1
light 1: not shown
heavy 2: B10 heavy 2 with Y33F, A102T
light 2: not shown
B25: ZNP367 (bispecific antibody, human IgG1, kappa, lambda, L234A L235A)
heavy 1: B1 heavy 1
light 1: not shown
heavy 2: B10 heavy 2 with Y33F, A102T
light 2: not shown
B26: GOP758 (bispecific antibody, human IgG1, kappa, lambda, L234A L235A)
heavy 1: B1 heavy 1
light 1: not shown
heavy 2: B10 heavy 2 with Y33F, A102T
light 2: DIQMTQSPSSVSASVGDRVTITCRASQGISSWLAWYQHKPGKAPKLLIYVASSLQGGGGSQGQDRHMIRMRQLIDIVDQLKNYVNDLVPEFLPAPEDVETNCEWSAFSCFQKAQLKSANTGNNERIINVSIKKLKRKPPSTNAGRRQKHRLTCPSCDSYEKKPPKEFLERFKSLLQKMIHQHLSSRTHGSEDSGGGGSSGVPSRFSGSGSGTDFTLTISSLQPEDFATYYCQQANSFPLTFGGGTKVEIKRTVAAPSVFIFPPSDEQLKSGTASVVCLLNNFYPREAKVQWKVDNALQSGNSQESVTEQDSKDSTYSLSSTLTLSKADYEKHKVYACEVTHQGLSSPVTKSFNRGEC

Target: T1, human IL-21 receptor (IL-21R) on cells (human, UniProt Q9HBE5 20-538; P31785 23-369)
Test: cell-based or functional assay

T1 sequence (Q9HBE5 20-538, chain 1 of 2): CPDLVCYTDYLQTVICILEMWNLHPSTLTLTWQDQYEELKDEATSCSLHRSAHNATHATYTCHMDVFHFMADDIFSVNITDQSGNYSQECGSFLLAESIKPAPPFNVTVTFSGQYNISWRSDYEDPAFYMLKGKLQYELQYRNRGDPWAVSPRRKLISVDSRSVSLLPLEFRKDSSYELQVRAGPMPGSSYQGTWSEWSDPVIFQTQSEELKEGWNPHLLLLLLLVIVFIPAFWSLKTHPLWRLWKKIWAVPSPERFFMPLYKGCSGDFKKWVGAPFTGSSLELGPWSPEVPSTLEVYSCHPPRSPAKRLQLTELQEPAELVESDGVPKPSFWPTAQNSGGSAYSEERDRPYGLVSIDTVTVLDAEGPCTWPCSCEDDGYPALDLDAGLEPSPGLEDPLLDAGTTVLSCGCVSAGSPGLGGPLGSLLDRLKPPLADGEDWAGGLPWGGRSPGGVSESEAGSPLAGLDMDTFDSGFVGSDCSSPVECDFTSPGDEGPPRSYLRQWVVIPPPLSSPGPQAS
T1 sequence (P31785 23-369, chain 2 of 2): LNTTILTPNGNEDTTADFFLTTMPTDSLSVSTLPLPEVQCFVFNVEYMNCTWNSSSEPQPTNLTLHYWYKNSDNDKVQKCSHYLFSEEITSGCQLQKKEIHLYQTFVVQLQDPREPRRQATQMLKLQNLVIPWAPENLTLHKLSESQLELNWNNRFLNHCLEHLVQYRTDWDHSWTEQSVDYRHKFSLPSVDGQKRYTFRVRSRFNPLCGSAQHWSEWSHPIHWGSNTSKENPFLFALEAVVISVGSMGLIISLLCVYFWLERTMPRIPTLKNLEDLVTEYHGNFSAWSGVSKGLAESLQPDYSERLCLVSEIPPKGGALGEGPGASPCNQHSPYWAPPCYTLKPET

EC50B, pSTAT3+ Jurkat PD-1 cells, PD-1 blocked	EC50NB, pSTAT3+ Jurkat PD-1 cells	Binder
34 pM	12 pM	B1
0.42 nM	24 pM	B2
2.56 nM	0.24 nM	B3
103 nM	0.86 nM	B4
15.9 nM	0.21 nM	B5
17.2 nM	0.52 nM	B6
0.44 nM	27 pM	B7
0.28 nM	39 pM	B8
5.36 nM	80 pM	B9

Target: T1, human IL-21 receptor (IL-21R) on cells
Test: cell-based or functional assay
Remark: another data set of the same source

EC50B, pSTAT3+ Jurkat PD-1 cells, PD-1 blocked [nM]	EC50NB, pSTAT3+ Jurkat PD-1 cells	Binder
1.97	19 pM	B10
0.872	13 pM	B11
0.13	96.9 pM	B12
1.05	0.167 nM	B13
0.312	15 pM	B14
0.13	96.3 pM	B15
1.06	16 pM	B16
0.751	12 pM	B17
1.24	0.106 nM	B18
0.627	23 pM	B19
1.33	9 pM	B20

Target: T1, human IL-21 receptor (IL-21R) on cells
Test: cell-based or functional assay
Remark: another data set of the same source

EC50B, pSTAT3+ Jurkat PD-1 cells, PD-1 blocked	EC50NB, pSTAT3+ Jurkat PD-1 cells [pM]	Binder
0.333 nM	7	B21
0.873 nM	6	B22
56 pM	0.7	B23

Target: T1, human IL-21 receptor (IL-21R) on cells
Test: cell-based or functional assay
Remark: another data set of the same source

EC50B, pSTAT3+ Jurkat PD-1 cells, PD-1 blocked [nM]	EC50NB, pSTAT3+ Jurkat PD-1 cells	Binder
2.3	39 pM	B24
0.97	36 pM	B25
0.51	0.227 nM	B26

Target: T1, human IL-21 receptor (IL-21R) on cells
Test: cell-based or functional assay
Remark: another data set of the same source

Δ	Binder
4.3	B10
4.21	B20
